Test results published in patent US20040132094A1 (ANAPHORE, published 2004).

Biological target: T1, bovine serum albumin (bovine, UniProt P02769 25-607)
T1 construct: Control coating; also called BSA
Assay: phage ELISA on coated BSA, HRP anti-phage detection
Description: Recombinant phages were isolated by precipitation with poly(ethylene glycol) (PEG 8000) and samples of Phtlec and PhTN3 phage preparations as well as a sample of helper phage were subjected to an ELISA-type sandwich assay, in which wells of a Maxisorb (Nunc) multiwell plate were first incubated with anti-human tetranectin or bovine serum albumin (BSA) and blocked in skimmed milk or skimmed milk/EDTA. Briefly, cultures of pPhtlec and pPhTN3 phagemid transformed TG1 cells were grown at 37° C. in 2×TY-medium supplemented with 2% glucose and 100 mg/L ampicillin until A₆₀₀ reached 0.5. By then the helper phage, M13K07, was added to a concentration of 5×10⁹ pfu/mL. The cultures were incubated at 37° C. for another 30 min before cells were harvested by centrifugation and resuspended in the same culture volume of 2×TY medium supplemented with 50 mg/L kanamycin and 100 mg/L ampicillin and transferred to a fresh set of flasks and grown for 16 hours at 25° C. Cells were removed by centrifugation and the phages precipitated from 20 mL culture supernatant by the addition of 6 mL of ice cold 20% PEG 8000, 2.5 M NaCl. After mixing the solution was left on ice for one hour and centrifuged at 4° C. to isolate the precipitated phages. […] Phages in the wells were detected after incubation with HRP-conjugated anti-phage conjugate (Amersham Pharmacia, code no. 27-9421-01) followed by further washing.

T1 sequence (P02769 25-607 limits assumed): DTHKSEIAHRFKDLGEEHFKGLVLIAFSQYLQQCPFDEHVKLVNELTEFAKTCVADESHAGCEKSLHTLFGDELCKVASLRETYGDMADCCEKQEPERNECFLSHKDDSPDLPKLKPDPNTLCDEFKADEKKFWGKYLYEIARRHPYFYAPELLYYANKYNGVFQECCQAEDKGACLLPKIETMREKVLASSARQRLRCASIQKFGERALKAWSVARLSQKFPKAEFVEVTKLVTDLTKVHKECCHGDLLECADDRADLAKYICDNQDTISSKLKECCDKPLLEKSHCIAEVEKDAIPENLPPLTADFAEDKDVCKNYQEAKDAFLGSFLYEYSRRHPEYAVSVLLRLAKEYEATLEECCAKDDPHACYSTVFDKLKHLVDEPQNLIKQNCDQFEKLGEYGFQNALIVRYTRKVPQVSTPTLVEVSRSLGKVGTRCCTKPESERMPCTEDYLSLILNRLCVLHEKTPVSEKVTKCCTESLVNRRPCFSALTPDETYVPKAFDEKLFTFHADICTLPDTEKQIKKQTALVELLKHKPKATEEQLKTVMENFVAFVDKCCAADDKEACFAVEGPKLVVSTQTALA

Binder	binding result
Phtlec phage (Phtlec-gene III fusion protein displayed on recombinant phage) (other, Tested as whole phage particles rescued with M13KO7; claim 15 says htlec itself is position 5 Glu to 185 Val of it; also called human Phtlec phages; Phlec; not shown: phage gene III protein fused after the Phtlec part, as encoded by phagemid pCANTAB 5E; limits and any tag in between not) PAMAEPPTQKPKKIVNAKKDVVNTKMFEELKSRLDTLAQEVALLKEQQALQTVVLKGTKVHMKVFLAFTQTKTFHEASEDCISRGGTLSTPQTGSENDALYEYLRQSVGNEAEIWLGLNDMAAEGTWVDMTGTRIAYKNWETEITAQPDGGKTENCAVLSGAANGKWFDKRCRDQLPYICQFGIVA	no binding
PhTN3 phage (PhTN3-gene III fusion protein displayed on recombinant phage) (other, Tested as whole phage particles rescued with M13KO7; claim 18 says hTN3 is position 5 Ala to 141 Val of it; also called human PhTN3 phages; PhCTLD; not shown: phage gene III protein fused after the PhTN3 part, as encoded by phagemid pCANTAB 5E; limits and any tag in between not) PAMAALQTVCLKGTKVHMKCFLAFTQTKTFHEASEDCISRGGTLSTPQTGSENDALYEYLRQSVGNEAEIWLGLNDMAAEGTWVDMTGARIAYKNWETEITAQPDGGKTENCAVLSGAANGKWFDKRCRDQLPYICQFGIVA	no binding
